Reference: US20210085785A1 (TRUEBINDING, published 2021)
Where a chain is given by its changes, count along the chain named. One block for each binder: values may come before it.

Assays:
[1] = molecular target: T1, Purified human LRIG1 extracellular domain fused to a HIS tag (R&D Systems) (human) (UniProt Q96JA1); assay: biosensor binning; saturating mab5 20 ug/mL, competitor mab5 5 ug/mL
T1 sequence: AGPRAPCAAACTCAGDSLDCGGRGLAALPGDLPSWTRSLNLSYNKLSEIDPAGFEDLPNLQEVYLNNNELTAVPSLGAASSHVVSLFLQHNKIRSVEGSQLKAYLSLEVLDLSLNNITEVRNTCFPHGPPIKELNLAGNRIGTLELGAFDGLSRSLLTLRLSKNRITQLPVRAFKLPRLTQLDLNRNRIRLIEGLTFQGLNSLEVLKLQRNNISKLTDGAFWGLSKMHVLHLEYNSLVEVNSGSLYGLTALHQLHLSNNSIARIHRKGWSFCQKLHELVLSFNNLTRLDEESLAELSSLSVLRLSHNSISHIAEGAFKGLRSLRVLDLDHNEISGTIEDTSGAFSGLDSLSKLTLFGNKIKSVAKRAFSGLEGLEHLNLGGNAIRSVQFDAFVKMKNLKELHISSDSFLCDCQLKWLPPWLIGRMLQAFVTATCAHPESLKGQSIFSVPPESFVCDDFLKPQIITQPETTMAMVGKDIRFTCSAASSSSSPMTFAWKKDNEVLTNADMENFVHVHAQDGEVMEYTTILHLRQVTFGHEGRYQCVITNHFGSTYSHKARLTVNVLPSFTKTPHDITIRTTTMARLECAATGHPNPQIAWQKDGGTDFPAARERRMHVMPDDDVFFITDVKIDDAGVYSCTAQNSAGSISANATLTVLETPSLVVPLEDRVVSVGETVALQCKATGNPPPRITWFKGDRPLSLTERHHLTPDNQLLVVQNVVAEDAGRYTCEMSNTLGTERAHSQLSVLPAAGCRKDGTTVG

[2] = molecular target: T1, Purified human LRIG1 extracellular domain fused to a HIS tag (R&D Systems) (human); assay: biosensor binning; saturating mab5 20 ug/mL, competitor mab2 5 ug/mL
[3] = molecular target: T1, Purified human LRIG1 extracellular domain fused to a HIS tag (R&D Systems) (human); assay: blocking ELISA: LRIG1 ECD-His coated, antibody 3.3 ug/ml, oligomerized VISTA 50 nM, avidin-HRP
[4] = molecular target: T1, Purified human LRIG1 extracellular domain fused to a HIS tag (R&D Systems) (human); assay: biosensor binning; saturating mab5 20 ug/mL, competitor mab6 5 ug/mL
[5] = molecular target: T1, Purified human LRIG1 extracellular domain fused to a HIS tag (R&D Systems) (human); assay: biosensor binning; saturating mab5 20 ug/mL, competitor mab4 5 ug/mL
[6] = molecular target: T2, Purified human LRIG1 extracellular domain fused to a HIS tag (R&D Systems) (human, UniProt Q96JA1 35-794); assay: blocking ELISA: LRIG1 ECD-His coated, antibody 3.3 ug/ml, oligomerized VISTA 50 nM, avidin-HRP
T2 construct: also called human LRIG1-His; hLRIG1-His; not shown: HIS tag
T2 sequence: T1 sequence
Protocol: To identify LRIG1-targeted antibodies with the ability to block the interaction of LRIG1 and VISTA, purified LRIG1 and VISTA proteins were incubated in the presence of various LRIG1-targeted or control antibodies, or without antibody, and protein interaction was evaluated by ELISA. Purified human LRIG1 extracellular domain fused to a HIS tag (R&D Systems) was diluted in phosphate buffered saline (PBS) (Corning) to a concentration of 3 μg/ml and 100 ul was added to each well of a 96-well ELISA plate (Thermo Fisher, 44-2404-21). After incubating the plate at 4° C. overnight, the plate was washed three times with 300 μl of PBS with 0.05% TWEEN (VWR) (PBST) per well. The plate was then blocked for an hour with 200 μl of 2% bovine serum albumin (BSA) (Sigma) in PBST per well at room temperature with gentle rocking. Thereafter, the 2% BSA in PBST was removed and 50 ul of antibody at 3.3 ug/ml in 2% BSA in PBST was added to the wells. The plate was incubated for 10 minutes at room temperature with gentle rocking. Afterwards, 50 nM of oligomerized VISTA in 100 ul PBS buffer was added per well. […] The plate was read using a plate reader (Molecular Devices) at absorbance of 450 nm. Percent blockade of LRIG1-VISTA interaction was calculated as the fraction of signal obtained in each experimental samples of the no antibody sample less background signal.

competition matrix entry (not explained) [1]: 0
competition matrix entry (not explained) [2]: 0
percent of LRIG1-VISTA binding relative to an unblocked sample [3]: 60%
competition matrix entry (not explained) [4]: 0
competition matrix entry (not explained) [5]: 0
B1: mab5 (antibody, V domains shown)
VH: QVQLVQSGAEVKKPGASVKVSCKASGYTFTSYYLHWVRQAPGQRLEWMGWIYPGNVNTKYNQKFQGRVTITADKSASTAYMELSSLRSEDTAVYFCAREELGGFAYWGQGTLVTVSS
VL: DIQMTQSPSSLSASVGNRVTITCRASQDISNYLSWYQQKPGKVPKLLIYYTSILHSGVPSRFSGSGSGTDYSLTISSLQPEDVATYFCQQGNTLPRTFGQGTKVEIK

percent of LRIG1-VISTA binding relative to an unblocked sample [6]: 44%
B2: mab4 (IMT300) (antibody, V domains shown)
VH: B1 VH
VL: B1 VL with L11V, V15I, N17D, V43A, S72T, V83F, Q100G
notes: also called hLRIG1 mAb IMT300; Immutics PP14384

percent of LRIG1-VISTA binding relative to an unblocked sample [6]: 43%
B3: mab6 (antibody, V domains shown)
VH: B1 VH with M48I, Q62E, I70L
VL: B1 VL with L11V, V15I, N17D, V43A, S72T, V83F, Q100G
notes: also called Immutics PP14387
